Data on 29 molecules can be found in paper PMC9170038, “Crowdsourced RNA design discovers diverse, reversible, efficient, self-contained molecular switches”.

Bounds are passed on as bounds.

B1: Eterna 7692279 (Exclusion - Arginine B) (ssRNA)
RNA: AUUUUUUACAGAAGGAGCGUGUUUUAAUAAUCAUGGUGCUUAGCGAGUGAUGUUCGCUUUACACAGGUAGGUCGCUGUUUAUUUA
B2: Eterna 7740495 (Exclusion - Theophylline A) (ssRNA)
RNA: UCCUGCAAUCGUCCACGAAAGUGGAUCGAUACCAGAGUCGAAAGACUCCCUUGGCAGCGAGUGAUGUUCGAAGCAGGUAAAUAAA
B3: Eterna 7700638 (Same State - FMN B) (ssRNA)
RNA: ACCUAGUACGUAGGAUAUCGAACAUCAUUUAGUGAGAUCGAGUGAUGUUCGAUCACGUCUUCAGUUCGAGAAGGACGUACUAGGA
B4: Eterna 1615 (Same State - Theophylline A) (ssRNA)
RNA: UGCACCAGUGAUGUUGGUCGGCACCGAGAUACCAGCUGAUCUCUUAGCCCUUGGCAGCUCUUUAUUCGCGUUAUCAGUUUCUUCG
B5: Eterna 7696143 (Exclusion - Theophylline B) (ssRNA)
RNA: UGAUACCAGACUGAUACCAGCCAGUGAUGUUGGCUAAUCCAAGAAGGAGUCAAAGACUCCGGCCCUUGGCAGCAGUCUGGUAUCU
B6: Eterna 7730249 (Same State - Arginine B) (ssRNA)
RNA: UGUAUGGACUGAAGGAGCGCCUCAAAAUAGCAUGAGGAUCACCCAUGCAAGGCGAAAGCCGGGCAGGUAGGUCGCAGUCCAUACU
B7: Eterna 7721239 (Exclusion - Theophylline B) (ssRNA)
RNA: GGAAUAACCUGGGAUACCAGUCGGAGGACUAGGGAUCGGAGUGAUGUUCUGGGAUGUUUCGGCCCUUGGCAGCUCUGGUUUUCCG
B8: Eterna 6430181 (Small Loop Exclusion NG 3) (ssRNA)
RNA: UAUAGCCCUAGUUCGAGUGUCUAGGAGGAUAUACAGAGGCAGCCAAAGACAUGAGGAUCACCCAUGUAGAAGGCCUAGACGGUA
B9: Eterna 7758370 (Same State - Tryptophan B) (ssRNA)
RNA: UGUCAUUGGUCGGCCGCCACUUCAUAAAGAGUGAUGUUCUUAAAGACGGAUCGAAAGAUCUGUCGAAGGACCGGGACCGAUGACU
B10: Eterna 7685149 (Same State - Theophylline B) (ssRNA)
RNA: AAGUGUUCUAGUGAUACCAGACAAUUUUAUUUUUUCUUUUUUGCUAAGUGAUGUUUAGCAGUCCCUUGGCAGCACUAUUUCACUA
B11: Eterna 7626312 (Exclusion - Theophylline A) (ssRNA)
RNA: AGAUGCCACUGUGGAUAGCACGAUGCCGAUACCAGCUAGGAAACUAGCCCUUGGCAGCGGUACAUGAGGAUCACCCAUGUAUCCU
B12: Eterna 7727640 (Exclusion - Tryptophan A) (ssRNA)
RNA: GGCCUGGUCGCCUAGUGAUUGUCGGUAGGACGAGGACCGGUACGGCCGCCACUCGGCUUACCCAGUGAUGUUGGGUAUCCGUGGC
B13: Eterna 7693586 (Exclusion - Tryptophan B) (ssRNA)
RNA: GGAUAGGACACGGCCGCCACUACCGAGGAUACUCGAAACAUUUCCUCAGAUGAGUGAUGUUCAUCUAGGACCGGGUGUCCUAUCG
B14: Eterna 7761084 (Exclusion - FMN A) (ssRNA)
RNA: CGAGUGAUGUUCGUUCGUAUAUUUGGGUGACAGGAUAUGCGGAAACGCAGAAGGGUCGCCUUCGGGUUACCCGAAUUGGCGUUUU
B15: Eterna 7702469 (Exclusion - Arginine B) (ssRNA)
RNA: GUUACGCAUGGAAGGAGCGCGAAAAUUUAUAGUGAGUGAUGUUCACAAAUAAGAAUAAUAACGCAGGUAGGUCGCCAUGUGUAAC
B16: Eterna 7694710 (Exclusion - FMN B) (ssRNA)
RNA: GGAUAGGACAGAGGAUAUGGACAGUCUACAAAGUAGGCUGAAAAUCCUUGAAUGGAAGUGAUGUUUCUAGAAGGCUGUCCUAUCG
B17: Eterna 7710066 (Exclusion - Tryptophan A) (ssRNA)
RNA: AGCUGGGAUCCUCAGCGUCAAAGACGCAGUCGAGGACCGGUACGGCCGCCACUCGACACGAGGAUCACCCGUGUCAUUCCCAGCA
B18: Eterna 6436150 (Inverted Small Loop Exclusion NG 3) (ssRNA)
RNA: AACCGCGACCGGCCUGGCACGCCGAGAAGGGUACGUGACCUGCUUUACAUGAGGAUCACCCAUGUACAGGAUAUCGGAUAGCCG
B19: Eterna 7716457 (Exclusion - Theophylline B) (ssRNA)
RNA: CGUUUAUAGCAGGAUACCAGUACCCAUUAUGUACGUUUAUAGUAGAGUGAUGUUCUAAAGUACCCUUGGCAGCUUCCCGUGACCC
B20: Eterna 7692524 (Same State - Theophylline A) (ssRNA)
RNA: UGAUAAUGCAGUGAUGUUGCUAGAAACGAUACCAGUUAAGAAAAGAACCCUUGGCAGCGUAAAGUGCGCUCUAAUGAGUGUGCUU
B21: Eterna 7721560 (Exclusion - FMN A) (ssRNA)
RNA: CGAGUGAUGUUCGUUUUAAAAUUUUUUUGACAGGAUAUGCGGAAACGCAGAAGGGUCACCUUUGAGUUAAAAGAAAUUAAAUUUU
B22: Eterna 7702594 (Exclusion - Arginine B) (ssRNA)
RNA: GUUACGCAUGGAAGGAGCGCACUCCGAUUGAUCGACACAGUGAUGUUGUGGUUCGUUCGAAUGCAGGUAGGUCGCCAUGUGUAAC
B23: Eterna 7730299 (Same State - Arginine B) (ssRNA)
RNA: UGUAUGGACUGAAGGAGCGGGUAAAUAACCUGAGGAUCACCCAGGUAAAAGGCGAAAGCCACCCAGGUAGGUCGCAGUCCAUACU
B24: Eterna 7727764 (Exclusion - Tryptophan B) (ssRNA)
RNA: AAUAAACAGUCGGCCGCCACUUCAAUAGACUUAUUAUUGAAUGGUGUAGUUCUUCAGUGAUGUUGAAGGACCGGGACUUUCGCGC
B25: Eterna 7751925 (Exclusion - Tryptophan B) (ssRNA)
RNA: GGUAGCAUGGCGGCCGCCACUAAGAGAGUGAUGUUCUCUUAGUUUUUUGAUGUGUUAUCAAUUCUUAGGACCGGGCCAUGCUACC
B26: Eterna 10494 (Sensor v3, turn-off variant 2) (ssRNA)
RNA: AGUACUAACACGAAAGUGUUAGUCCAAUAAGCUUGUGAAACAUGAGGAUCACCCAUGUCCUCAUAAGCUCGUCUUAU
B27: Eterna 6084833 (Exclusion 5) (ssRNA)
RNA: UCAUGCUAAGGAUAUGACGUCGGCUACAUGAGGAUCACCCAUGUGGGUUCGUUAUGGCCAUUAGAAGGUAGCGAUU
B28: Eterna 7675404 (Same State - Tryptophan A) (ssRNA)
RNA: UGGCGAGUGAUGUUCGUUGUUGUAGUGUGUCGAGGACCGGUACGGCCGCCACUCGAGUUGGUUGUUGUUGUUGCUGUUGUUGCUG
B29: Eterna 7687669 (Same State - Tryptophan B) (ssRNA)
RNA: UUUAUUAAGACGGCCGCCACUGAUUCAUAGUGAUGUUAUGAUAUAAUCUUAGUGAUAUUUAUAAACAGGACCGGGUCAAUUAUUA

The target of this data set is MS2 coat protein, dlFG mutant (Escherichia phage MS2, UniProt P03612, del68-81insG). The data set is described as follows: 4 mM Mg2+; no ligand; RNA-MaP array; 100 mM Tris-HCl pH 7.5, 80 mM KCl, 4 mM MgCl2, 0.1 mg/mL BSA, 1 mM DTT, 0.01 mg/mL yeast tRNA, 0.01% Tween-20; protein 1.5 nM to 3 uM; 37 C (Table S3). The settings on record: chain copies: 2; label: tethered by stalled RNA polymerase.
As for B1, the Kd was > 3 µM.
B2: the equilibrium dissociation constant (Kd) is > 3 µM.
Consider B3, for which the Kd was > 3 µM.
Regarding B4, the Kd is > 3 µM.
Consider B5, for which the Kd is > 3 µM.
In turn, B6 showed a Kd of 0.0126 µM.
For B7, the Kd is > 3 µM.
In the case of B8 it was 0.0136 µM; in that of B9, > 3 µM; in that of B10, > 3 µM.
B11 had a Kd of 0.0132 µM.
With B12, the Kd was > 3 µM.
Regarding B13, the equilibrium dissociation constant (Kd) is > 3 µM.
As to B14, the Kd was > 3 µM.
In the case of B15, the equilibrium dissociation constant (Kd) is > 3 µM.
On to B16, for which the Kd was > 3 µM.
Regarding B17, the dissociation constant Kd came out at 0.379 µM.
In turn, B18 displayed a Kd of 0.00568 µM.
As for B19, the figure is > 3 µM; as for B20, > 3 µM.
As for B21, the figure is > 3 µM; as for B22, > 3 µM.
For the molecule B23, the Kd amounted to 0.0109 µM.
In the case of B24 it was > 3 µM; in that of B25, > 3 µM; in that of B26, 0.0152 µM.
As for B27, the figure is 0.0196 µM; as for B28, > 3 µM; as for B29, > 3 µM.

Broadly, the Kd is a measure of binding affinity in units of concentration. Lower therefore signals higher affinity.
